Substitutions are numbered along the chain they refer to. Names and notes keep the numbering of the source.
B1: Ab1 Fab variant H3 W110M (Fab, V domains shown)
VH: QVQLQESGPGLVKPSQTLSLTCTVSGYAFTAYNIHWVRQAPGQGLEWMGSFDPYDGGSSYNQKFKDRLTISKDTSKNQVVLTMTNMDPVDTATYYCARGMYYFDYWGHGTLVTVSS
VL: DIVMTQTPLSLPVTPGEPASISCRASKSISKYLAWYQQKPGQAPRLLIYSGSTLQSGIPPRFSGSGYGTDFTLTINNIESEDAAYYFCQQHDESPYTFGEGTKVEIK
notes: Fab
B2: Ab1 Fab variant H1 T32E (Fab, V domains shown)
VH: B1 VH with T30E, M100W
VL: B1 VL
notes: Fab
B3: Ab1 Fab variant H3 W110Y (Fab, V domains shown)
VH: B1 VH with M100Y
VL: B1 VL
notes: Fab
B4: Ab1 Fab variant H1 T32A + L1 A25P (Fab, V domains shown)
VH: B1 VH with T30A, M100W
VL: B1 VL with A25P
notes: Fab
B5: Ab1 Fab variant H1 T32A + L1 A25P + L2 Q71T (Fab, V domains shown)
VH: B1 VH with T30A, M100W
VL: B1 VL with A25P, Q55T
notes: Fab
B6: Ab1 Fab variant H1 T32A + L1 A25P + L2 L70K (Fab, V domains shown)
VH: B1 VH with T30A, M100W
VL: B1 VL with A25P, L54K
notes: Fab
B7: Ab1 Fab variant H1 T32A + L1 A25P + L2 T69R (Fab, V domains shown)
VH: B1 VH with T30A, M100W
VL: B1 VL with A25P, T53R
notes: Fab
B8: Ab1 Fab variant H1 T32A + L1 A25P + L2 T69H (Fab, V domains shown)
VH: B1 VH with T30A, M100W
VL: B1 VL with A25P, T53H
notes: Fab
B9: H1 T32A Ab1 scFv (scFv)
scFv: QVQLQESGPGLVKPSQTLSLTCTVSGYAFAAYNIHWVRQAPGQGLEWMGSFDPYDGGSSYNQKFKDRLTISKDTSKNQVVLTMTNMDPVDTATYYCARGWYYFDYWGHGTLVTVSSGGGGSGGGGSGGGGSADIVMTQTPLSLPVTPGEPASISCRASKSISKYLAWYQQKPGQAPRLLIYSGSTLQSGIPPRFSGSGYGTDFTLTINNIESEDAAYYFCQQHDESPYTFGEGTKVEIKRDYKDDDDKGKPGSGKPGSGKPGSGKPGSYPYDVPDYAS
notes: VH - linker - VL with C-terminal FLAG and HA tags; also called scFv variant H1 T32A; Ab1.1
B10: Ab1 scFv (scFv)
scFv: B9 scFv with A30T
notes: the pelB leader is not part of the entry; also called parental Ab1 scFv; Ab1 parental construct
B11: Ab1 Fab variant H1 T32A + L2 T69R, Q71T (Fab, V domains shown)
VH: B1 VH with T30A, M100W
VL: B1 VL with T53R, Q55T
notes: Fab
B12: Ab1 Fab variant H1 T32A + L2 T69R (Fab, V domains shown)
VH: B1 VH with T30A, M100W
VL: B1 VL with T53R
notes: Fab
B13: Ab1 Fab variant H1 T32A + L1 K29S + L2 T69R (Fab, V domains shown)
VH: B1 VH with T30A, M100W
VL: B1 VL with K27S, T53R
notes: Fab
B14: Ab1 Fab variant H1 T32A + L1 K29S (Fab, V domains shown)
VH: B1 VH with T30A, M100W
VL: B1 VL with K27S
notes: Fab
B15: Ab1 Fab variant H3 W110F (Fab, V domains shown)
VH: B1 VH with M100F
VL: B1 VL
notes: Fab
B16: Ab1 Fab variant H3 W110H (Fab, V domains shown)
VH: B1 VH with M100H
VL: B1 VL
notes: Fab
B17: Ab1 Fab variant H1 T32A + L2 T69H, L70K (Fab, V domains shown)
VH: B1 VH with T30A, M100W
VL: B1 VL with T53H, L54K
notes: Fab
B18: Ab1 Fab variant H1 T32A + L2 T69H, L70K, Q71T (Fab, V domains shown)
VH: B1 VH with T30A, M100W
VL: B1 VL with T53H, L54K, Q55T
notes: Fab
B19: Ab1 Fab variant H1 T32A + L2 T69H (Fab, V domains shown)
VH: B1 VH with T30A, M100W
VL: B1 VL with T53H
notes: Fab
B20: Ab1 Fab variant H1 T32A + L2 L70K, Q71T (Fab, V domains shown)
VH: B1 VH with T30A, M100W
VL: B1 VL with L54K, Q55T
notes: Fab
B21: Ab1 Fab variant H1 T32A + L2 L70K (Fab, V domains shown)
VH: B1 VH with T30A, M100W
VL: B1 VL with L54K
notes: Fab

The binders below were run against T1, recombinant human ROR1 extracellular domain (human, UniProt Q01973 30-406) (assay: ELISA, soluble Fab on coated huROR1-ECD).
T1 construct: biotinylated for the filter lifts; also called huROR1-ECD; human ROR1-ECD
T1 sequence (Q01973 30-406 limits assumed): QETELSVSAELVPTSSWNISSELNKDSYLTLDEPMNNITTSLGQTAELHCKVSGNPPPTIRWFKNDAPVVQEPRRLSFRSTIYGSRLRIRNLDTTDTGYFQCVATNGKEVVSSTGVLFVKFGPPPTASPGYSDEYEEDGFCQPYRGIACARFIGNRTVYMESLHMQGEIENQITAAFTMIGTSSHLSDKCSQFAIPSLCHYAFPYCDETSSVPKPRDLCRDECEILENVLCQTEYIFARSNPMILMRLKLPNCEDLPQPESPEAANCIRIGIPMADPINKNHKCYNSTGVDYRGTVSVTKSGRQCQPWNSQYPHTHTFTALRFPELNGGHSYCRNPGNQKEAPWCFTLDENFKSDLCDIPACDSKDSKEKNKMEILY

| fold reduction of binding against Ab1 [fold] | fold increase of binding against Ab1 [fold] | Binder |
| --- | --- | --- |
| 10 to 23 | – | B1 |
| – | ~2 | B2 |
| 10 to 23 | – | B3 |

These binders were tested against T1, recombinant human ROR1 extracellular … (assay: ELISA with prolonged wash, soluble Fab on coated huROR1-ECD).
Protocol: (§1) The previously described filter lift assay provides a visual, qualitative assessment of antigen binding (Example 1). In order to assess the ROR1 binding activity of Ab1 Fab in a more quantitative fashion, an ELISA assay was developed. A 96-well Costar-3366 plate was coated with 50 μL/well of 1 μg/mL human ROR1-ECD (ACROBiosystems, cat. #RO1-H522y) in PBS overnight at 4° C. The plate was rinsed once with PBS-T and blocked with 100 μL/well of 5% M-P for 1 h at 25° C. Fab samples were serially diluted 3-fold using 5% M-P and 50 μL/well was incubated for 1 h at 25° C. The plate was washed three times with PBS-T and 50 μL/well anti-human kappa, and HRP conjugate (Southern Biotech, cat. #2060-05) diluted 10,000-fold in 5% M-P was added for 1 h at 25° C. In certain assays (extended wash format), the plate was placed in large volumes (up to 1 L) of PBS-T and incubated, with mixing, for 2-5 h prior to the addition of anti-human kappa, HRP conjugate. The plate was washed three times with PBS-T, and developed with 50 μL/well 1-Step Ultra TMB-ELISA (Thermo Scientific, cat. #34028). The reaction was terminated by the addition of 2 N H2504 and the A450 was determined using a Spectramax plate reader.
(§2) Subsequently, the libraries were screened by capture lift to identify the strongest binding variants. The identity of the variants was determined by DNA sequencing and the relative affinities were characterized using an ELISA (described in Example 2) modified to enable further discrimination between the highest affinity variants. Specifically, following the initial incubation with soluble Fab, the plates were washed for a prolonged time (>1 h) in large volumes of PBS-T. The plates were then developed as described in Example 2.

| Kd [nM] | Binder |
| --- | --- |
| 1.8 | B4 |
| 2.9 | B5 |
| 2.1 | B6 |
| 2.4 | B7 |
| 2.3 | B8 |

These binders were tested against T1, recombinant human ROR1 extracellular … (assay: ELISA: huROR1-ECD coated on the plate, periplasmic scFv in serial dilution, anti-HA-HRP detection; x axis is Log [relative expression], no concentration unit).
Protocol: scFv constructs were expressed and isolated from the periplasmic space using the same protocol that was used for Fabs (Example 2). In order to quantitate the relative levels of scFv expression of the three variants, a 96-well Costar-3366 plate was coated with 50 μl/well of 2 μg/mL anti-FLAG-unlabeled (Rockland, cat. #600-401-383) in PBS overnight at 4° C. The plate was washed three times with PBS containing 0.05% Tween 20 (PBS-T) and blocked with 100 μL of 5% M-P. The plate was washed once, then 50 μl/well of sample dilutions was added. Sample dilutions were performed with 5% M-P. The plates were incubated 1 h at 25° C., washed three times with PBS-T, and incubated with 50 μl/well of anti-HA HRP conjugate (Roche, cat. #12013819001), diluted 1,000-fold in 5% M-P for 1 h at 25° C. The plate was washed three times with PBS-T, and developed with 50 μl/well 1-Step Ultra TMB-ELISA (Thermo Scientific, Prod. #34028, Lot #SF2405221). The reaction was terminated by the addition of 2 N H2504 and the A450 was determined using a Spectramax plate reader.
Next, the binding of the isolated scFv variants to huROR1-ECD was assessed by ELISA as described in Example 2. A 96-well Costar-3366 plate was coated with 50 μl/well of 1 μg/mL human ROR-1 (AcroBiosystems, cat. #R01H522Y) in PBS overnight at 4° C. The plate was washed three times with PBS-T and blocked with 100 μL of 5% M-P. The plate was washed once, then 50 μl/well of 2-fold serial dilutions of sample was added. Sample dilutions were performed with 5% M-P. The plates were incubated 1 h at 25° C., washed three times with PBS-T, and incubated with 50 μl/well of anti-HA HRP conjugate (Roche, cat. #12013819001), diluted 1,000-fold in 5% M-P for 1 h at 25° C. […] The reaction was terminated by the addition of 2 N H₂SO₄ and the A450 was determined using a Spectramax plate reader. In order to compare the relative binding strength of the scFv variants, the expression levels as determined using the scFv ELISA described above were normalized to the Ab1 parental construct. […]

| binding result | Binder |
| --- | --- |
| binds | B9 |
| binds | B10 |

Molecular target: T1, recombinant human ROR1 extracellular …
Experiment: ELISA, soluble Fab on coated huROR1-ECD
Remark: another data set of the same source
Protocol: as §1

| Kd [nM] | Binder |
| --- | --- |
| 3.3 | B2 |

What follows are binders tested against T2, human ROR1 on live cells (human, UniProt Q01973 30-937) (assay: flow cytometry on live JeKo-1 cells, Fab detected with anti-HA-PE).
T2 construct: ROR1-transfected MEC cells (~56,000 copies/cell) or JeKo-1 cells (~13,000 copies/cell); the cell line is named under assay; also called ROR1-transfected MEC cells; JeKo-1 cells
Protocol: ROR1 binding was quantitated using flow cytometry and 2.5E5 ROR1-transfected MEC cells or JeKo-1 cells for each concentration of Fab variant. The cells were placed in 50 μL of PBS with 2% FBS. Next, the cells were diluted with an equal volume of 2× stock of the test Fab variant and the cells and antibody were co-incubated on ice for 20 min. The cells were then washed 3 times with 300 μL of FACS buffer and were resuspended in 100 μL of a 70-fold dilution of anti-HA.11-PE conjugate, clone 16B12 (BioLegend, cat. #901517) and incubated on ice with reduced light for 20 min. Subsequently, the cells were washed 3 times with 300 μL of FACS buffer and fixed with 2% paraformaldehyde for 10 min at 25° C. The cells then were washed 2 times with 300 μL of FACS buffer and analyzed on a Miltenyi MACSQuant Analyzer.

T2 sequence (Q01973 30-937 limits assumed): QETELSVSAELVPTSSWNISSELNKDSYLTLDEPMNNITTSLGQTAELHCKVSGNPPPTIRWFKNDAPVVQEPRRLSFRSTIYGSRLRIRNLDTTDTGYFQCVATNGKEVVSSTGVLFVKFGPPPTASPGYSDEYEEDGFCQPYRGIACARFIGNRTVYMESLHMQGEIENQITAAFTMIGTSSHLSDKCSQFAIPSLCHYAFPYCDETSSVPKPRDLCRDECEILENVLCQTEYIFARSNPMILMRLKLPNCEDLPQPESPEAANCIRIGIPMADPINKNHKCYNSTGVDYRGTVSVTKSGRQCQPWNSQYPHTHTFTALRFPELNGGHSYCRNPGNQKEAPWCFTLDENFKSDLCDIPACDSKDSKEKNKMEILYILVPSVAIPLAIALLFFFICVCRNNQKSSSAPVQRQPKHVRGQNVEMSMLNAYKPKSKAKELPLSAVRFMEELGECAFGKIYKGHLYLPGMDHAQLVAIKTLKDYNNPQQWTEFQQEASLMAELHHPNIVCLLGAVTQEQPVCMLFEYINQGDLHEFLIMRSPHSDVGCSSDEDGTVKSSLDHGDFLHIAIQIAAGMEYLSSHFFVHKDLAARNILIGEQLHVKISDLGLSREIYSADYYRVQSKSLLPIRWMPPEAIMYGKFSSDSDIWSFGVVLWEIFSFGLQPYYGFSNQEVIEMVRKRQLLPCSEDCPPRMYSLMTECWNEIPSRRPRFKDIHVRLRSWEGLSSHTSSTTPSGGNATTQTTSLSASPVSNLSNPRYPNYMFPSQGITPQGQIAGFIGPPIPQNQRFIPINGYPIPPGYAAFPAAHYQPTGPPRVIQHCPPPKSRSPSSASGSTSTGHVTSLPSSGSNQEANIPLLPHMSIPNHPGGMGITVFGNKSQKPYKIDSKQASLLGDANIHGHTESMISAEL

| EC50 (read off the curve) [nM] | Binder |
| --- | --- |
| ~1 | B11 |
| ~1 | B6 |
| ~2 | B12 |
| ~1 | B13 |
| ~1 | B7 |
| ~2 | B14 |

Molecular target: T1, recombinant human ROR1 extracellular …
Experiment: ELISA, soluble Fab on coated huROR1-ECD
Remark: another data set of the same source
Protocol: as §1

| Kd [nM] | Binder |
| --- | --- |
| 160 | B1 |
| 96 | B15 |
| 110 | B16 |
| 68 | B3 |

Molecular target: T1, recombinant human ROR1 extracellular …
Experiment: ELISA with prolonged wash, soluble Fab on coated huROR1-ECD
Remark: another data set of the same source
Protocol: as §1, §2

| Kd [nM] | Binder |
| --- | --- |
| 1.8 | B4 |
| 2.3 | B12 |
| 2.1 | B13 |
| 2.1 | B7 |
| 2.1 | B14 |

These binders were tested against T2, human ROR1 on live cells (assay: flow cytometry on live JeKo-1 cells, scFv detected with anti-HA-PE; x axis is Log [relative scFv expression], no concentration unit).

| binding result | Binder |
| --- | --- |
| binds | B9 |
| binds | B10 |

Molecular target: T1, recombinant human ROR1 extracellular …
Experiment: ELISA with prolonged wash, soluble Fab on coated huROR1-ECD
Remark: another data set of the same source
Protocol: as §1, §2

| Kd [nM] | Binder |
| --- | --- |
| 1.1 | B11 |
| 1.8 | B17 |
| 1.1 | B12 |
| 1.4 | B18 |
| 2.3 | B19 |
| 1.6 | B20 |
| 1.6 | B21 |

Reference: patent US20230021388A1 (VELOSBIO, published 2023)
